This is an account of results in patent publication US20210348144 (published 2021).

Data set [1] has as its target T1, LbCas12a G146R (Lachnospiraceae bacterium ND2006). Kind of data set: cell_activity; WT 7.70; 50 nM RNP, HEK293, T7EI 48 h; PAM of site not stated.
The target of data set [2] is T2, LbCas12a R182V (Lachnospiraceae bacterium ND2006). Described as above.
For data set [3], the target named is T3, LbCas12a S1020E (Lachnospiraceae bacterium ND2006). The data set is described as above.
For data set [4], the target named is T4, LbCas12a E981V (Lachnospiraceae bacterium ND2006). The description is as above.
The target in data set [5] is T5, LbCas12a K1121D (Lachnospiraceae bacterium ND2006). The description is as above.
Data set [6] deals with T6, LbCas12a G146R/R182V/E795Q (RVQ) (Lachnospiraceae bacterium ND2006). The description is as above.
Data set [7] deals with T7, LbCas12a T152K (Lachnospiraceae bacterium ND2006). Described as above.
Data set [8] addresses T8, LbCas12a E795Q (Lachnospiraceae bacterium ND2006). The data set is described as above.
Data set [9] addresses T9, LbCas12a P799V (Lachnospiraceae bacterium ND2006). Described as above.
For data set [10], the target named is T10, LbCas12a W890A (Lachnospiraceae bacterium ND2006). The description is as above.
The target in data set [11] is T1, LbCas12a G146R. Kind of data set: cell_activity; WT 15.77; 50 nM RNP, HEK293, T7EI 48 h; PAM of site not stated.
Data set [12] addresses T2, LbCas12a R182V. The description is as above.
Data set [13] concerns the target T3, LbCas12a S1020E. The description is as above.
Data set [14] deals with T4, LbCas12a E981V. The data set is described as above.
In data set [15] the target is T5, LbCas12a K1121D. The description is as above.
Data set [16] addresses T6, LbCas12a G146R/R182V/E795Q (RVQ). The description is as above.
Data set [17] addresses T7, LbCas12a T152K. The description is as above.
Data set [18] concerns the target T8, LbCas12a E795Q. The data set is described as above.
Data set [19] has as its target T9, LbCas12a P799V. The data set is described as above.
Data set [20] deals with T10, LbCas12a W890A. The data set is described as above.

B1: crRNA-2 HPRT 38094-S-23 ; HPRT 38094-S protospacer (DNA equivalent of crRNA-2 spacer) (ssRNA ; dsDNA)
RNA: UAAUUUCUACUAAGUGUAGAUAUAGUCUUUCCUUGGGUGUGUUA
DNA 1: ATAGTCTTTCCTTGGGTGTGTTA
DNA 2: TAACACACCCAAGGAAAGACTAT
On to B1, for which the activity with LbCas12a G146R [1] was found to be 16.2 % editing; with LbCas12a R182V [2], 10.4 % editing; with LbCas12a S1020E [3] it was 4.27 % editing; with LbCas12a E981V [4] it was 13.8 % editing; with LbCas12a K1121D [5], 3.65 % editing; in data set [6], 32.8 % editing. In addition, the activity with LbCas12a T152K [7] turned out to be 20.9 % editing; in the data set with LbCas12a E795Q [8], 9.77 % editing; in the data set with LbCas12a P799V [9], 16.7 % editing; in the data set with LbCas12a W890A [10], 3.8 % editing.

B2: crRNA-4 HPRT 38486-S-23 ; HPRT 38486-S protospacer (DNA equivalent of crRNA-4 spacer) (ssRNA ; dsDNA)
RNA: UAAUUUCUACUAAGUGUAGAUUUGUAGGAUAUGCCCUUGACUAU
DNA 1: TTGTAGGATATGCCCTTGACTAT
DNA 2: ATAGTCAAGGGCATATCCTACAA
As to B2, the activity worked out at 32.2 % editing with LbCas12a G146R [11]; 29.1 % editing with LbCas12a R182V [12]; 7.6 % editing in the data set with LbCas12a S1020E [13]; 26.4 % editing with LbCas12a E981V [14]; 6.87 % editing in the data set with LbCas12a K1121D [15]; 51.5 % editing in data set [16]. Further, the activity amounted to 18.6 % editing in the data set with LbCas12a T152K [17], 26.8 % editing in the data set with LbCas12a E795Q [18], 30.7 % editing in the data set with LbCas12a P799V [19] and 4.27 % editing with LbCas12a W890A [20].
